Laboratory results as given in patent US20090293142A1.

How the values were obtained:
[1] = target: invertase activity in the soluble fraction of a leaf extract of a wild type plant; assay: cell-based or functional assay
[2] = target: invertase activity in the cell wall fraction of wild type tobacco leaves; assay: cell-based or functional assay

| invertase activity in mixed-extract assay, percent of the added value of the extracts incubated separately (5 mM sucrose, pH 4.5) [1] [%] | invertase activity in mixed-extract assay, percent of the added value (1 mM sucrose; concentrated cell wall fraction of transgenic leaves) [2] [%] | invertase activity in mixed-extract assay, percent of the added value (5 mM sucrose; concentrated cell wall fraction of infiltrated transgenic leaves) [2] [%] | Substance |
| --- | --- | --- | --- |
| 86 | – | – | Arabidopsis thaliana cell wall invertase inhibitor AtC/VIF2 (At5g46940) |
| 79 | – | – | Arabidopsis thaliana vacuolar invertase inhibitor AtC/VIF1 (At1g47960) (from UniProt F4HWQ8 24-205) |
| – | 58 | 70 | tobacco apoplasmic invertase inhibitor (Greiner et al., 1998) |
